Legend:
[1] = molecular target: recombinant cynomolgus FcεRIα (cynomolgus monkey (Macaca fascicularis)); assay: SPR
[2] = molecular target: recombinant human FcεRIα (human) (UniProt P12319); assay: SPR

Row | Kd [1] | Kd [2] | Substance
1 | 1.4 nM | 0.00673 nM | recombinant cynomolgus IgE Fc (Cε1-4) (domain or fragment)
2 | 1 nM | 0.00839 nM | recombinant human IgE (antibody)
